We go through one molecule from US20090048117A1, “MODULATION OF IMMUNE SYSTEM FUNCTION BY MODULATION OF POLYPEPTIDE ARGININE METHYLTRANSFERASES” (President and Fellows of Harvard College, priority 2003, published 2009).

Common to all, as to type: cell-based
Assay [1] has as its system IL-4 promoter. Briefly: IL-4-CAT reporter assay in HepG2 cells. To be noted: NIP45 together with NFATp and c-Maf. Here is the method:
FIG. 9 depicts CAT assay results (left) and a bar graph quantitating the relative fold induction of CAT activity (right) in HepG2 cells transfected with an IL-4-CAT reporter gene, construct (extending to −732 bp of the IL-4 promoter) and combinations of NFATp, NIP45 and/or c-Maf expression constructs, as indicated.
Although a reporter construct containing multiple copies of the NFAT binding site provides a sensitive method for measuring transactivation by NFAT and NIP45, it was determined if NIP45 was functional in the context of a native NFAT-dependent promoter. IL-4 expression is highly tissue specific and restricted to the Th2 subset of T cells and to mast cells. […] Thus, the IL-4 promoter is not active in the HepG2 cell line but can be activated by the introduction of NFATp and c-maf. In cotransfection experiments carried out as described above, HepG2 cells were transfected with an IL-4-CAT reporter construct (extending to −732 bp of the IL-4 promoter) and expression vectors or controls for NIP45, NFATp and c-Maf. The controls for NIP45 was a frame shift mutant at amino acid 13. Controls for NFATp and c-Maf were the empty expression vectors pREP4 and pMEX respectively (Ho, I. C. et al. (1996) Cell 85:973-983). The results of these experiments are shown in FIG. 9 (representative CAT assays and bar graphs are depicted as in FIG. 8).
(In a reporter assay the amount or activity of a reporter protein is the signal.)

Assay [2] relates to 3X NFAT-CAT reporter. Briefly: 3X NFAT-CAT reporter assay in HepG2 cells. From the text: FIG. 8 depicts CAT assay results (left) and a bar graph quantitating the relative fold induction of CAT activity (right) in HepG2 cells transfected with a 3X NFAT-CAT reporter gene construct (containing three NFAT binding sites) and either a control expression plasmid or an NFAT family expression plasmid (NFATp, NFATc, NFAT3 or NFAT4), alone (−) or in combination with a NIP45 expression plasmid (^+).
To test for a functional role of NIP45 in NFAT-driven transcription, NIP45 was expressed at high levels in HepG2 cells. […] HepG2 cells were transfected with a 3X NFAT-CAT reporter from the IL-2 gene (Venkataraman, L. et al. (1994) Immunity 1:189-196) and control or expression plasmids for a NIP45 and NFAT family members (NFATp, NFATc, NFAT3, NFAT4). HepG2 cells were transfected by the DEAE-Dextran method as described in Hoey, T. et al. (1995) supra, and CAT assays were performed according to standard methodologies. One representative assay for each combination is shown adjacent to a bar graph representing relative CAT activity for each group. Fold induction was calculated by normalizing the CAT activity of cells transfected with the CAT reporter and each parental expression vector to one. Values represent the relative level of CAT expression above this control transfection. All transfections were performed at least three times with one representative autoradiograph shown.

For assay [3], the system named is M12 B lymphoma cells. Kind of assay: Endogenous IL-4 production by transfected M12 B lymphoma cells (ELISA). The conditions noted are these: M12 cells cotransfected with NFATp and c-Maf; supernatants at 72 hours. Here is the method:
FIG. 10 is a bar graph depicting the level of IL-4 (in pg/ml) in the supernatants of M12 B lymphoma cells transiently cotransfected with expression plasmids for NFATp, c-Maf and a pCI vector control (top bar) or expression plasmids for NFATp, c-Maf and NIP45 (bottom bar).
M12 cells were transiently transfected by electroporation as previously described (Ho, I. C. et al. (1996) Cell 85:973-983) by incubating 3×10^6 cells in 0.4 ml of PBS with 5 μg of each plasmid for 10 minutes at room temperature prior to electroporation at 975 μF, 280 V. Levels of IL-4 in the supernatants harvested 72 hours later were measured by a commercially available IL-4 ELISA (Pharmingen), performed according to the manufacturer's instructions except with modification as described (Ho, I. C. et al. (1996) supra). Four independent sets of transient transfections were done and assayed for secretion of IL-4 into the culture supernatant. For each set of transfections, inclusion of NIP45 led to a dramatic increase in IL-4 production.
(ELISA stands for enzyme-linked immunosorbent assay.)

B1: NIP45: 45 Kd NFAT interacting protein of 412 amino acids (SEQ ID NO: 2), expressed from a transfected expression plasmid (protein, listed as Mus musculus)
chain: MAEPLRGRGPRSRGGRGARRARGARGRCPRARQSPARLIPDTVLVDLVSDSDEEVLEVADPVEVPVARLPAPAKPEQDSDSDSEGAAEGPAGAPRTLVRRRRRRLLDPGEAPVVPVYSGKVQSSLNLIPDNSSLLKLCPSEPEDEADLTNSGSSPSEDDALPSGSPWRKKLRKKCEKEEKKMEEFPDQDISPLPQPSSRNKSRKHTEALQKLREVNKRLQDLRSCLSPKQHQSPALQSTDDEVVLVEGPVLPQSSRLFTLKIRCRADLVRLPVRMSEPLQNVVDHMANHLGVSPNRILLLFGESELSPTATPSTLKLGVADIIDCVVLASSSEATETSQELRLRVQGKEKHQMLEISLSPDSPLKVLMSHYEEAMGLSGHKLSFFFDGTKLSGKELPADLGLESGDLIEVWG
For the molecule B1, the “increase in activity of the IL-4 promoter relative to NFATp and c-Maf alone” value in assay [1] amounted to 9 fold. In addition, in assay [2] (NIP45 cotransfected with NFATp), the “increase in CAT activity over vector alone” value is recorded as 25-30 fold and the “increase in CAT activity relative to transfection with NFATp alone” value is listed as 4-5 fold. The “CAT expression from 3X NFAT-CAT reporter” value in assay [2] (NIP45 transfected alone) is listed as “did not lead to a significant increase”. For the same molecule, in assay [3], the “endogenous IL-4 production relative to cells that did not receive NIP45” value is reported as 50-200 fold.
